Test results taken from the nanobody polyreactivity screen of Harvey et al. (2022).

assay: yeast display, Sf9 membrane polyspecificity reagent, FACS + sequencing; frameworks hold sequencing errors
Procedure, shortened: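 Using colony PCR, genes from sorted yeast display clones were amplified, then sequenced on MiSeq at 2 × 250 and filtered by CDR length. The clones had been stained with 10% biotinylated, detergent-solubilized Sf9 membrane reagent for 1 hour at 4 °C and sorted by FACS into low and high (top ~1%) gates on anti-HA and streptavidin fluorescence. Polyreactivity labels come from the gate of origin.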

| Sequence | polyreactivity (PSR sort gate) |
| --- | --- |
| QVQLVESGGGLVQAGGSLRLSCAASGSTFASNAMGWYRQAPGKERELVAAISGSGGRTYYADSVKGRFTISRDNAKNTVYLQMNSLKQEDTAVYYCAADWVRRYNYWGQGTQVTVSS | high polyreactivity |
| QVQLVESGGGLVQAGGSLRLSCAASGSTFASNTMGWYRQAPGKERELVAAITQSGGTTYYAESVKGRFTISRDNAKNTVTLQMNSLKPEDTAVYYCATDVGYFYTVVGGYDYWGQGTQVTVSS | low polyreactivity |
| QVQLVESGGGLVQAGGSLRLSCAASGSTFATYAMGWYRQAPGKERELVAAIRVSGGTTYADSVKGRFTISRDNAKNTVYLQMNSLKPEDNAVYYCAATGWEVYDIFDYWVQGTQVTVSS | low polyreactivity |
| QVQLVESGGGLVQAGGSLRLSCAASGSTFATYTMGWYRQAPGKERELVAAISVSGSRTYYADSVKGRFTISRDNAKNTVYLQMNSLKPEDTAVYYCNADPPVKLYLYDYWGQGTQVTVSS | high polyreactivity |
| QVQLVESGGGLVQAGGSLRLSCAASGSTFATYVMGWYRQAPGKETELVAAISSSGSTNYADSVKGRFTISRDNAKNTVYLQMNSLKPEYTAVYYCAARYYRLTDRPYNPIVSYGYWGQGTQVTVSS | high polyreactivity |
| QVQLVESGGGLVQAGGSLRLSCAASGSTFAVYAMGWNRQAPGKERELVASITRGGSTYYADSVKGRFTISRDNAKYTVYLQMNSLKPEDTAVYYCADSITHYWYGYWGQGTQVTVSS | high polyreactivity |
| QVQLVESGGGLVQAGGSLRLSCAASGSTFAWYAMGWYRQAPGKERELVAAISSGGRTYYADSVKGRFTISRDNAKNTVYLQMNSLKPEDTAVYYCNAVDWAYGMDYWGQGTQVTVSS | low polyreactivity |
| QVQLVESGGGLVQAGGSLRLSCAASGSTFAWYTMGWYRQAPGKERELVASITSTGSTNYADSVKGRFTISRDNAKNTVYLQMNSLKPEDTAVYYCAAAVRAWYRRLYDYWGQGTQVTVSS | high polyreactivity |
| QVQLVESGGGLVQAGGSLRLSCAASGSTFAYNAMGWYRQAPGKERELVAAITRSGGSTYYADSVKGRFTISRDNAKNTVYLQKNSLKPEDTAVYYCNKASGGYYVTSLYAYRYYYWGQGTQVTVSS | high polyreactivity |
| QVQLVESGGGLVQAGGSLRLSCAASGSTFAYNDMGWYRQAPGKERELVADSRSGGNTNYADSVKGRFTISRDNAKNTVYLQMNSLKREDTAVYYCATDGYRIDVFHPDYRYDYWGHGTQVTVSS | low polyreactivity |
| QVQLVESGGGLVQAGGSLRLSCAASGSTFAYNTMGWYRQAPGKERELVAAISQRGGSTYADSVKGRFTISRDNAKNTVYLQMNSLKPEVTAVYYCNKRNVYYSYPFDYDYWGQGTQVTVSS | low polyreactivity |
| QVQLVESGGGLVQAGGSLRLSCAASGSTFAYYAMGWYRQAPGKEREFVAAISSRKDSTYADSVKGRFTLSRDNAKNTVYLQMNSLKPEDTAVYYCAKGPYYWSSSRVRYDYWGQGTQVTVSS | high polyreactivity |
| QVQLVESGGGLVQAGGSLRLSCAASGSTFAYYAMGWYRQAPGKERELVAAISASGSRTYYADSVKGRFTISRDNAKNTVYLQMNSLKPEDTAVYYCAALQYRRKIPTAYAGDYWGQGTQVTVSS | high polyreactivity |
| QVQLVESGGGLVQAGGSLRLSCAASGSTFAYYAMGWYRQAPGKERELVAAISYSGGITYYADSVKGRFTISRDNAKNTVYLQMNSLKPEDTAVYYCNKLFAQEFDYWGQGTQVTVSS | high polyreactivity |
| QVQLVESGGGLVQAGGSLRLSCAASGSTFAYYAMGWYRQAPGKERELVAGISGSGGSTYYADSVKGRFTISRDNAKNTVYLQMNSLKPEVTAVYYCAVVQRSKRTYPWYDYWGQGTQVTVSS | low polyreactivity |
| QVQLVESGGGLVQAGGSLRLSCAASGSTFAYYAMGWYRQAPGKERELVAVISVRVGSTYYADSVKGRFTISRDNAKNTVYLQMNSLNPEDTAVYYCATDFFYHSLSSRQDGDYWGQGTQVTVSS | high polyreactivity |
| QVQLVESGGGLVQAGGSLRLSCAASGSTFAYYAMGWYRQAPGKEREMVAAISSGGSTYYADSVKGRFTISRDNAKNTVYLQMNSLKPEDTAVYYCNAEVPGHYFDGWYFYDFDYWGQGTQVTVSS | low polyreactivity |
| QVQLVESGGGLVQAGGSLRLSCAASGSTFAYYAMVWYRQAPGKERELVAAISTIAGRTYYADSVKGRFTISRDNAKNTVYLQMNSLKPEDTAVYYCAVQFLYVVTLYSDYDYWGQGTQVTVSS | high polyreactivity |
| QVQLVESGGGLVQAGGSLRLSCAASGSTFAYYMGWYRQAPGKERELVASISTYYADSVKGRFTISRDNAKNTVYLQMNSLKPEDTAVYYCNKAYYYVFTNYSTALAGDWGQGTQVTVSS | low polyreactivity |
| QVQLVESGGGLVQAGGSLRLSCAASGSTFAYYTMGWYRQAPGKERELVAAITSGGRTSYADSVKGRFTISRDNAKNTVYLQMNSLKPEDTAVYYCAKGRKPGYYYWGQGTQVTVSS | high polyreactivity |
| QVQLVESGGGLVQAGGSLRLSCAASGSTFAYYTMGWYRQAPGKERELVAAITSGGRTTYADSVKGRFTISRDNAKNTVYLQMNSLKPEDTAVYYCAKGRKPGYYYWGQGTQVTVSS | high polyreactivity |
| QVQLVESGGGLVQAGGSLRLSCAASGSTFCDNAMGWYRQAPGNERELVAAISMSGGRTYYADSVKGRFTISRDNAKNTVYLQMNSLKPEDTAVYYCAAVGNRRYYFGYDYWGQGSQVTVSS | high polyreactivity |

| Sequence | polyreactivity (PSR sort gate) |
| --- | --- |
| QVQLVESGGGLVQAGGSLRLSCAASGSTFCDNSMGWYRQAPGKERELVAAITTSGTSTYYADSVKGRFTISRDNAKNTVYLQMNSLKPEDTAVYYCAAPYGVARFGDYLDDYDYWGQGTQVTVSS | low polyreactivity |
| QVQLVESGGGLVQAGGSLRLSCAASGSTFCDYTMGVYRQAPGKERELLAAISRRGGITYYADSVKGRFTISRDNAKNTVYLQMNSLKPEDTAVYYCNKVYNPKSYIQYDYWGQGTQVTVSS | high polyreactivity |
| QVQLVESGGGLVQAGGSLRLSCAASGSTFDAYAMGWYRQAPGKERELVAPISWSGGGTTYADSVKGRFTISRDNAKNTVYLLMNSLKPEDTAVYYCNAKGSVRDFQDTLRPEGDYWGQGTQVTVSS | low polyreactivity |
| QVQLVESGGGLVQAGGSLRLSCAASGSTFDDNAMGWYRQAPGKERELVAVISSGGSTNYADSVKGRFTISRDNAKNTVYLQMNSLKPEDTAVYYCAAAKLTRRYRYGYWGQGTQVTVSS | high polyreactivity |
| QVQLVESGGGLVQAGGSLRLSCAASGSTFDDNDMGWYRQAPGKERELVAAISWSGGSTTYADSVKGRFTISRDYAKNTVYLQMNSLKPEDTAVYYCAADWYYWGFIFDYWGQGTQVTVSS | high polyreactivity |
| QVQLVESGGGLVQAGGSLRLSCAASGSTFDDYALGWYRQAPGKERELVAAISFSSGSTYYADSVKGRFTISRDNAKNTVYLQMNSLKPEDTAVYYCAAEKYGWTYYFSWQEDYWGQGTQVTVSS | high polyreactivity |
| QVQLVESGGGLVQAGGSLRLSCAASGSTFDDYAMGWYRPAPGKERELVAAISSDGSTNYADSVKGRFTISRDNAKNTVYLQMNSLKPEDTAVYYCAAESPWDWGYWFEALYDYWGQGTQVNVSS | high polyreactivity |
| QVQLVESGGGLVQAGGSLRLSCAASGSTFDDYAMGWYRQAPGKERELVAAISSSGGRTYYADSVKGRFTISRDNAKNTVYLQMNSLKPEDTAVYYCNADSYRSRGRYEFGRFDYWGQGTQVTVSS | high polyreactivity |
| QVQLVESGGGLVQAGGSLRLSCAASGSTFDDYAMVWYRQAPGKDREFVAAISFSGDSTYYADSVKGRFTISRDNAKNTVYLQMNRLKPEDTAVYYCAAEVPAEENGYAYDYWGQGTQVTVSS | low polyreactivity |
| QVQLVESGGGLVQAGGSLRLSCAASGSTFDENAMGWYRQAPGKERELVAGITTNGGSTSYADSVKGRFTISRDNAKNTVYLQMNSLKPEDTAVYYCAKGLYVQFDYWGQGSQVTVSS | low polyreactivity |
| QVQLVESGGGLVQAGGSLRLSCAASGSTFDFNAMGWYRQAPWKEMELVADITRDGSTNYADSVKGRFTISRDNAKNTVYLQMNSLNPEDTAVYYCNAANRPGISGITTQGYYWGQGTQVTVSA | low polyreactivity |
| QVQLVESGGGLVQAGGSLRLSCAASGSTFDFNVMGWYRQAPGKERELVAAISSGSSTYYADSVKGRFTISRDNAKNTVYLQMNSLKPEDTAVYYCARRYQLVRTRYYYWGQGTQVTVSS | high polyreactivity |
| QVQLVESGGGLVQAGGSLRLSCAASGSTFDGYAMGWYRQAPGKERELVAAISYSGSSTYYADSVKGRFTISGDNAKNTVYLQMNSLKPEDTAVVYCAVDDTHPFGPDGGGDYWGQGTQVTVSS | low polyreactivity |
| QVQLVESGGGLVQAGGSLRLSCAASGSTFDHNAMGWYRQAPGKEREFVAAISARGGITYYADSVKGRFTISRDNAKNTVYLQMNSLKPEDTAVYYCADVFGDYWSSQWSYAYGYWGLGTQVTVSS | high polyreactivity |
| QVQLVESGGGLVQAGGSLRLSCAASGSTFDHNVMGWYRQAPGKERELVAAISGSGGSTYYADSVKGRFTISRDNAKNTVYLQMNSLKPEDTAVYYCAARYYVGHRGYYSWGQGTQVTVSS | high polyreactivity |
| QVQLVESGGGLVQAGGSLRLSCAASGSTFDHYDMGWSIPAPGKERELVAAISYSGSTTVYADSVKGRFTISRDNAMNTVYLQMNSLKPEDTAVYYCAASGDVIQSPMDYWGQGTQVTVSS | low polyreactivity |
| QVQLVESGGGLVQAGGSLRLSCAASGSTFDINAMGWYRQAPGKERELVAAITWRSGRTYYADSVKGRFTISRDNAKNNVYLQMNSLKPEDTAVYYCAADDTSYYIYSYDYWGQGTQVTVSS | low polyreactivity |
| QVQLVESGGGLVQAGGSLRLSCAASGSTFDINVMGWYRQAPGKERELVAAITWSGGRTYYADSVKGRFTISRDNAKNTVYLQMNSLKPEDTAVYYCAARVGRGVYRYVPREFDYWGQGTQVTVSS | high polyreactivity |
| QVQLVESGGGLVQAGGSLRLSCAASGSTFDIYAMGWYRQAPGKERELVAVISGGDGSTYYADSVKGRFTISRDNAKNTVYLQMNSLKPEDTAVYYCAADYISPGYCDGEYDCWGQGTQVTVSS | low polyreactivity |
| QVQLVESGGGLVQAGGSLRLSCAASGSTFDIYAMGWYRQAPGKERKLVAVISGGDGSTYYADSVKGRFTISRDNAKNTVYLQMNSLKPEDTAVYYCEYDYWGQGTQVTVSS | low polyreactivity |
| QVQLVESGGGLVQAGGSLRLSCAASGSTFDIYVMGWYRQAPGKERELVAAISRVGNTSYADSVKGRFTISRDNAKNTVYLQMNRLNPEDTAVYYCAADRADFFVIRTIDPYDYWGQGTQVTVSS | low polyreactivity |
